Data reported in PMC6879610 (2019).

T1: MPER peptide PDT-081 (HIV-1, biotin at the C-terminus)
T1 chain: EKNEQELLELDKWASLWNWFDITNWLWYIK


Molecular target: T1, MPER peptide PDT-081
Test: ELISA

| Binder | EC50 |
| --- | --- |
| PGZL1.H4K3 IgG (antibody, V domains shown) VH: KVQLVQSGAELKKPWSSVRVSCKASGGSFSSYAFNWVRQAPGQRLEWLGGIVPLVSSTNYAQRFRGRVTISADRSTSTVYLEMTGLTSADTAVYFCAREGEGWFGRPLRAFEFWGQGTLVTVST VL: EIVLTQSPGTFALSPGERATLSCRASQSVSGGALAWYQQKAGQAPRLLIYGTSGRATGVPGRFSGSGSETDFSLTISRLEPEDFAVYYCQQYGTSQSTFGQGTRLETR | 0.039 mg/L |
| H4K3_SFS28EPE IgG (antibody, V domains shown) VH: KVQLVQSGAELKKPWSSVRVSCKASGGEPESYAFNWVRQAPGQRLEWLGGIVPLVSSTNYAQRFRGRVTISADRSTSTVYLEMTGLTSADTAVYFCAREGEGWFGRPLRAFEFWGQGTLVTVST VL: EIVLTQSPGTFALSPGERATLSCRASQSVSGGALAWYQQKAGQAPRLLIYDTSGRATGVPGRFSGSGSETDFSLTISRLEPEDFAVYYCQQYGTSQSTFGQGTRLETR | 0.076 mg/L |
| H4K3_RS73PE IgG (antibody, V domains shown) VH: KVQLVQSGAELKKPWSSVRVSCKASGGSFSSYAFNWVRQAPGQRLEWLGGIVPLVSSTNYAQRFRGRVTISADPETSTVYLEMTGLTSADTAVYFCAREGEGWFGRPLRAFEFWGQGTLVTVST VL: EIVLTQSPGTFALSPGERATLSCRASQSVSGGALAWYQQKAGQAPRLLIYDTSGRATGVPGRFSGSGSETDFSLTISRLEPEDFAVYYCQQYGTSQSTFGQGTRLETR | 0.09 mg/L |
| H4K3_5M IgG (antibody, V domains shown) VH: KVQLVQSGAELKKPWSSVRVSCKASGGEPESYAFNWVRQAPGQRLEWLGGIVPLVSSTNYAQRFRGRVTISADPETSTVYLEMTGLTSADTAVYFCAREGEGWFGRPLRAFEFWGQGTLVTVST VL: EIVLTQSPGTFALSPGERATLSCRASQSVSGGALAWYQQKAGQAPRLLIYDTSGRATGVPGRFSGSGSETDFSLTISRLEPEDFAVYYCQQYGTSQSTFGQGTRLETR | 0.083 mg/L |

Molecular target: T1, MPER peptide PDT-081
Test: BLI

| Binder | koff |
| --- | --- |
| H4K3_RS73PE Fab (Fab, V domains shown) VH: KVQLVQSGAELKKPWSSVRVSCKASGGSFSSYAFNWVRQAPGQRLEWLGGIVPLVSSTNYAQRFRGRVTISADPETSTVYLEMTGLTSADTAVYFCAREGEGWFGRPLRAFEFWGQGTLVTVST VL: EIVLTQSPGTFALSPGERATLSCRASQSVSGGALAWYQQKAGQAPRLLIYDTSGRATGVPGRFSGSGSETDFSLTISRLEPEDFAVYYCQQYGTSQSTFGQGTRLETR | 0.00051 s⁻¹ |
| H4K3_SFS28EPE Fab (Fab, V domains shown) VH: KVQLVQSGAELKKPWSSVRVSCKASGGEPESYAFNWVRQAPGQRLEWLGGIVPLVSSTNYAQRFRGRVTISADRSTSTVYLEMTGLTSADTAVYFCAREGEGWFGRPLRAFEFWGQGTLVTVST VL: EIVLTQSPGTFALSPGERATLSCRASQSVSGGALAWYQQKAGQAPRLLIYDTSGRATGVPGRFSGSGSETDFSLTISRLEPEDFAVYYCQQYGTSQSTFGQGTRLETR | 0.00054 s⁻¹ |
| H4K3_5M Fab (Fab, V domains shown) VH: KVQLVQSGAELKKPWSSVRVSCKASGGEPESYAFNWVRQAPGQRLEWLGGIVPLVSSTNYAQRFRGRVTISADPETSTVYLEMTGLTSADTAVYFCAREGEGWFGRPLRAFEFWGQGTLVTVST VL: EIVLTQSPGTFALSPGERATLSCRASQSVSGGALAWYQQKAGQAPRLLIYDTSGRATGVPGRFSGSGSETDFSLTISRLEPEDFAVYYCQQYGTSQSTFGQGTRLETR | 0.00067 s⁻¹ |
